These results are taken from patent US5820866.

Assay [1] addresses IA^b -Ea protein (membrane-bound IA^b with IEα^d peptide (56-73) joined by a linker to IAβ^b) (murine). Description: inferred from IL-2 production by BO.97.10 with M12.C3 cells and added cOVA peptide.
Assay [2] concerns the target IE^kd -MCC protein (soluble IE^kd αβ dimer with MCC peptide (91-103) joined by a linker to IEβ^k) (murine).
In assay [3] the target is IA^d -OVA protein (soluble IA^d αβ dimer with cOVA peptide (327-339) joined by a linker to IAβ^d) (murine).
The target of assay [4] is IA^b protein (membrane-bound, without covalent peptide). Description: inferred from IL-2 production by BO.97.10 with fibroblasts and added cOVA peptide.
Assay [5] has the same target. Description: inferred from IL-2 production by BO.97.10 with M12.C3 cells and added cOVA peptide.
For assay [6], the target named is IA^b -Ea protein bound by added cOVA peptide (murine; chicken) (UniProt P01012).
The target is the same in assay [7]. The source holds these as a separate data set.

As for “cOVA Peptide (327-339) (from UniProt P01012)”, the percent of the IA^b -Ea protein bound by cOVA peptide in assay [1] stood at 10%. On to thrombin (enzyme), for which the digestion of the complex as assessed by SDS-PAGE in assay [2] and in assay [3] was greater than 80% in each case. Consider IEα^d Peptide (56-73), for which the percent of the IA^b -Ea protein bound by IEα^d peptide in assay [4] was found to be 90%. In assay [5], this substance returned a percent of the IA^b -Ea protein with IEα^d bound to the binding site of 90%. In the case of BO.97.10 T hybridoma cells (TCR), the IL-2 production in the presence of cOVA peptide (fibroblasts) (fold less IL-2 production) in assay [6] came out at 10. Moreover, the IL-2 production in the presence of cOVA peptide (M12.C3 cells) (fold less IL-2 production) in assay [7] was found to be 10.
